For seven molecules, activity and binding signal results are on record in US20250002945, “NEW TALE PROTEIN SCAFFOLDS WITH IMPROVED ON-TARGET/OFF-TARGET ACTIVITY RATIOS” (CELLECTIS SA, published 2025).

Common to all, as to conditions: tags: SV40 NLS; FokI fusion
For one data set, the target named is T1, IgH (2) right V2 TALEN (synthetic, UniProt Q56830 SEQ:15-719).
T1 chain: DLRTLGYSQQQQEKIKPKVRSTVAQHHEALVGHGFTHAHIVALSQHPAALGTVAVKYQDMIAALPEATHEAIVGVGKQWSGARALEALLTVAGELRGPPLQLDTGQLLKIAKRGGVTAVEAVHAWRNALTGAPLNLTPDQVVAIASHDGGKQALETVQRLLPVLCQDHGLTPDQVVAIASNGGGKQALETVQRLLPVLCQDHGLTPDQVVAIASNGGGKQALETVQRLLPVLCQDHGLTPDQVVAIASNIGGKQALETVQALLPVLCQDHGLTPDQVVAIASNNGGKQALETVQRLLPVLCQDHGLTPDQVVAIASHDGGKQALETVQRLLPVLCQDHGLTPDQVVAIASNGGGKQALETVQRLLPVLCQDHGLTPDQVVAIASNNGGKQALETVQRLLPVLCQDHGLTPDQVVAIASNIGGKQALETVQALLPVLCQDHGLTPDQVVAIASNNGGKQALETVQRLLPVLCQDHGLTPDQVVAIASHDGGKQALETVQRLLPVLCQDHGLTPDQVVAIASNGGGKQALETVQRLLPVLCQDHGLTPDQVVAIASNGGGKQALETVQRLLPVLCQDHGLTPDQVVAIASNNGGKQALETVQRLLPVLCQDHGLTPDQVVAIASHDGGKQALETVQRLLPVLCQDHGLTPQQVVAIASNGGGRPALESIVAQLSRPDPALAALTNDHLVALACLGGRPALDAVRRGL
Put plainly: cell_activity; T cells, mostly above 70%.

For the next data set, the target named is T2, GADPH (2) left V2 TALEN (synthetic, UniProt Q56830 SEQ:15-719).
T2 chain: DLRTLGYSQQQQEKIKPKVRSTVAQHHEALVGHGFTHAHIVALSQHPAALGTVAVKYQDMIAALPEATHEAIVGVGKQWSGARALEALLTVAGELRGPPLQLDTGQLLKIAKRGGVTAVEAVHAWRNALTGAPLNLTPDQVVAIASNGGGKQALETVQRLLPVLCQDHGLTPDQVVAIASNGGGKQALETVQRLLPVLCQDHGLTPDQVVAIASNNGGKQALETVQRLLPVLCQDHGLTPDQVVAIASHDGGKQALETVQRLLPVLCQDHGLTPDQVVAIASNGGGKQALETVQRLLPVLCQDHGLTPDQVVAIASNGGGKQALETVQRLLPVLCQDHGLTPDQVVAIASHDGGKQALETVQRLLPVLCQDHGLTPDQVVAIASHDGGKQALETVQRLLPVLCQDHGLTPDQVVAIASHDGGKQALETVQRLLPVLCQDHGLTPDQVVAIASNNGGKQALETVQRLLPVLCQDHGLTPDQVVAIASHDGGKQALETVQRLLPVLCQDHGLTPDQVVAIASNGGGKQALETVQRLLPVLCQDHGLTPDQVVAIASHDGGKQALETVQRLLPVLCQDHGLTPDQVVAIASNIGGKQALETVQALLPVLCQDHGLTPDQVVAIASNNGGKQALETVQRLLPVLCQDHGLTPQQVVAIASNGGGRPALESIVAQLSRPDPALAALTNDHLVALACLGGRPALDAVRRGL
Put plainly: cell_activity; T cells, mostly above 70%.

The target in the next data set is T3, GADPH (2) right V2 TALEN (synthetic, UniProt Q56830 SEQ:15-719).
T3 chain: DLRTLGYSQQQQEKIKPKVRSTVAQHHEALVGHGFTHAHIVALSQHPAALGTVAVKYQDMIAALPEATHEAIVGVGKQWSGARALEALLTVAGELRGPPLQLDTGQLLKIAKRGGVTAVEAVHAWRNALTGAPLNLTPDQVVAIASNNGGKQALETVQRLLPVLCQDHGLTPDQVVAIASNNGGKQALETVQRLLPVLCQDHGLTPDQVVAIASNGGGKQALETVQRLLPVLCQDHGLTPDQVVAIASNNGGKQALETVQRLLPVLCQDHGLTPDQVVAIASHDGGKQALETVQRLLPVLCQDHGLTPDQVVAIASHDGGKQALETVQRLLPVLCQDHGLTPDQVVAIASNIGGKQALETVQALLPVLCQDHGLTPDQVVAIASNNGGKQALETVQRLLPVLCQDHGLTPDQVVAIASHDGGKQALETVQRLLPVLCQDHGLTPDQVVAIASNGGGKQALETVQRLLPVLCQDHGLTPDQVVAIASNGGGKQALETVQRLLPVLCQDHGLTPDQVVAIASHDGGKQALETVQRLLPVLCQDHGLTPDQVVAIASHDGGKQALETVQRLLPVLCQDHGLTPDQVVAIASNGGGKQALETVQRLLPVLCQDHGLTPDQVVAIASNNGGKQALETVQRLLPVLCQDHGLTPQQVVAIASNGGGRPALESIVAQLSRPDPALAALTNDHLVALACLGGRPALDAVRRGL
Kind of data set: cell_activity; T cells, mostly above 70%.

The target in a further data set is T4, GADPH (1) right V2 TALEN (synthetic, UniProt Q56830 SEQ:15-719).
T4 chain: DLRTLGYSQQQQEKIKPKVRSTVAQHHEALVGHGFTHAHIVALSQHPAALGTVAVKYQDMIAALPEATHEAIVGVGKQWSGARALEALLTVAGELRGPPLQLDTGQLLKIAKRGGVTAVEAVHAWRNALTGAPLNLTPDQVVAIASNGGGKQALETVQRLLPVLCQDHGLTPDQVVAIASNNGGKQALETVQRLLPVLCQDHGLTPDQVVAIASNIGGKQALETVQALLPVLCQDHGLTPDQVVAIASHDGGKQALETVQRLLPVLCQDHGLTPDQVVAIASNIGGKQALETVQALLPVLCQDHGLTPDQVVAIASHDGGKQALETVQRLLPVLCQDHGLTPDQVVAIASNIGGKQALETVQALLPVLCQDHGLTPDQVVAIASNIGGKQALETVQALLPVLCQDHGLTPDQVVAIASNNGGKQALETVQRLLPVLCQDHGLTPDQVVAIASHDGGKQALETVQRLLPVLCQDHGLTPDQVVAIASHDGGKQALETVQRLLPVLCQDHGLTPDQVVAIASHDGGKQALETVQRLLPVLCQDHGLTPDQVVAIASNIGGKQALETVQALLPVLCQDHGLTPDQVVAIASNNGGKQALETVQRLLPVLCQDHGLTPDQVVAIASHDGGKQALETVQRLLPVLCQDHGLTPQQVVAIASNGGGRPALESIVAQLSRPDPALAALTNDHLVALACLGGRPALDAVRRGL
Kind of data set: cell_activity; T cells, mostly above 70%.

The target of the next data set is T5, GADPH (1) left V2 TALEN (synthetic, UniProt Q56830 SEQ:15-719).
T5 chain: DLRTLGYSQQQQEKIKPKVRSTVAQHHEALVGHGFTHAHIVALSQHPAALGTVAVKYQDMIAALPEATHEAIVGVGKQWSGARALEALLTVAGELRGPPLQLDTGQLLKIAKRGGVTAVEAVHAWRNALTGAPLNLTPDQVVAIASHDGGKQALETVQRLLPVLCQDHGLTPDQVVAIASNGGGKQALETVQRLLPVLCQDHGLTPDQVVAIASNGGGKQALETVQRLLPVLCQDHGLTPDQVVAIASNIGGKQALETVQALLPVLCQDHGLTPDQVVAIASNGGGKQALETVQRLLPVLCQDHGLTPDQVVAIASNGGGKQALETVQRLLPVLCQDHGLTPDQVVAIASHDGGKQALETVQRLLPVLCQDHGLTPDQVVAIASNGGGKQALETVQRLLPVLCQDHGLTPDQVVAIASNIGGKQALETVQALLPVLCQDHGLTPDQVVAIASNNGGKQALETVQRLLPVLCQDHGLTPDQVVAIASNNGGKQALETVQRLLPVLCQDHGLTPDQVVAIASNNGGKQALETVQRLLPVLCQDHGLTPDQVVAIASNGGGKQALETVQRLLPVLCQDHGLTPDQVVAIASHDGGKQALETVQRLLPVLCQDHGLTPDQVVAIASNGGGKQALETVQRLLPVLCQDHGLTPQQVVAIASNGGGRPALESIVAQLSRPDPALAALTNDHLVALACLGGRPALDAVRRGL
Put plainly: cell_activity; T cells, mostly above 70%.

For the next data set, the target named is T6, IgH (2) left V2 TALEN (synthetic, UniProt Q56830 SEQ:15-719).
T6 chain: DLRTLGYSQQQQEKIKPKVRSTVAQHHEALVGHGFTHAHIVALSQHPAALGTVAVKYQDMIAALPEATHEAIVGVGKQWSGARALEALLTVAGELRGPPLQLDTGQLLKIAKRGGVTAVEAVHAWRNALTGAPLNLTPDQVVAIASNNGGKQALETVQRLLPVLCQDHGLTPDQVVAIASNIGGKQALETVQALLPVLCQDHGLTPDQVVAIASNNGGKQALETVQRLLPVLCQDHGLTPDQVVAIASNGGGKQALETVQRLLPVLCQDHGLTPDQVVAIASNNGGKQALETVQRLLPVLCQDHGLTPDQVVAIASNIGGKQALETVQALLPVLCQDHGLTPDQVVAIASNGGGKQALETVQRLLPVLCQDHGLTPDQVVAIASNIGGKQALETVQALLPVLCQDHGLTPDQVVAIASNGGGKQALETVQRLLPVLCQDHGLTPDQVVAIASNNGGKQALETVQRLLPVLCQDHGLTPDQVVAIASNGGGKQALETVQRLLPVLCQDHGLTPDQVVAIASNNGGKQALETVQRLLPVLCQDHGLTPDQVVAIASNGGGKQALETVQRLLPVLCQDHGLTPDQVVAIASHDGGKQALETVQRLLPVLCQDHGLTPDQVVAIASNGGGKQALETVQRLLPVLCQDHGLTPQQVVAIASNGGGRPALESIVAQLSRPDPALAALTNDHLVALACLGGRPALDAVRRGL
Kind of data set: cell_activity; T cells, mostly above 70%.

For data set [1], the target named is CS1 TALEN left V0 FokI G91A (synthetic, UniProt Q56830, G91A (FokI domain, SEQ ID NO:109 numbering)). Put plainly: cell_activity; paired with V0 monomer.
The target in data set [2] is CS1 TALEN left V0 FokI Y88A (synthetic, UniProt Q56830, Y88A (FokI domain, SEQ ID NO:109 numbering)). Put plainly: cell_activity; paired with V0 monomer.
For data set [3], the target named is CS1 TALEN left V0 FokI D84A (synthetic, UniProt Q56830, D84A (FokI domain, SEQ ID NO:109 numbering)). Kind of data set: cell_activity; paired with V0 monomer.

Bounds are passed on as bounds.

B1: IgH (2) right half-site (dsDNA)
DNA 1: AGCAAGCTCAGCTAAGA
DNA 2: TCTTAGCTGAGCTTGCT
For the molecule B1, in the data set with IgH (2) right V2 TALEN, the activity is greater than 50 % indels.

B2: GADPH (2) left half-site (dsDNA)
DNA 1: TTTGCTTCCCGCTCAGA
DNA 2: TCTGAGCGGGAAGCAAA
In the data set with GADPH (2) left V2 TALEN, B2 came in with an activity greater than 50 % indels.

B3: GADPH (2) right half-site (dsDNA)
DNA 1: ACAGGAAGCTGGCACCA
DNA 2: TGGTGCCAGCTTCCTGT
In turn, B3 gave an activity with GADPH (2) right V2 TALEN greater than 50 % indels.

B4: GADPH (1) right half-site (dsDNA)
DNA 1: AGCTGGGCTTGTGTCAA
DNA 2: TTGACACAAGCCCAGCT
Turning to B4, the activity with GADPH (1) right V2 TALEN is greater than 50 % indels.

B5: GADPH (1) left half-site (dsDNA)
DNA 1: TCTTATTCTAGGGTCTG
DNA 2: CAGACCCTAGAATAAGA
For B5, in the data set with GADPH (1) left V2 TALEN, the activity is greater than 50 % indels.

B6: IgH (2) left half-site (dsDNA)
DNA 1: TGAGTGATATGTGTCTG
DNA 2: CAGACACATATCACTCA
The molecule B6 had an activity with IgH (2) left V2 TALEN greater than 50 % indels.

B7: CS1 left half-site (dsDNA)
DNA 1: TTCCAGAGAGCAATATG
DNA 2: CATATTGCTCTCTGGAA
Take B7: the binding signal in [1], in [2] and in [3] was > 100 % of WT FokI in each case.
